Laboratory results reported in patent publication US9081020B2, “Mutant proteins and methods for selecting them” (Heptares Therapeutics Limited, priority 2008, dated 2015).

B1: M145A: Ala-mutant in the transmembrane region of the M1 mAChR (protein)
chain: MNTSAPPAVSPNITVLAPGKGPWQVAFIGITTGLLSLATVTGNLLVLISFKVNTELKTVNNYFLLSLACADLIIGTFSMNLYTTYLLMGHWALGTLACDLWLALDYVASNASVMNLLLISFDRYFSVTRPLSYRAKRTPRRAALAIGLAWLVSFVLWAPAILFWQYLVGERTVLAGQCYIQFLSQPIITFGTAMAAFYLPVTVMCTLYWRIYRETENRARELAALQGSETPGKGGGSSSSSERSQPGAEGSPETPPGRCCRCCRAPRLLQAYSWKEEEEEDEGSMESLTSSEGEEPGSEVVIKMPMVDPEAQAPTKQPPRSSPNTVKRPTKKGRDRAGKGQKPRGKEQLAKRKTFSLVKEKKAARTLSAILLAFILTWTPYNIMVLVSTFCKDCVPETLWELGYWLCYVNSTINPMCYALCNKAFRDTFRLLLLCRWDKRRWRKIPKRPGSVHRTPSRQC
B2: C69A: Ala-mutant in the transmembrane region of the M1 mAChR (protein)
chain: MNTSAPPAVSPNITVLAPGKGPWQVAFIGITTGLLSLATVTGNLLVLISFKVNTELKTVNNYFLLSLAAADLIIGTFSMNLYTTYLLMGHWALGTLACDLWLALDYVASNASVMNLLLISFDRYFSVTRPLSYRAKRTPRRAALMIGLAWLVSFVLWAPAILFWQYLVGERTVLAGQCYIQFLSQPIITFGTAMAAFYLPVTVMCTLYWRIYRETENRARELAALQGSETPGKGGGSSSSSERSQPGAEGSPETPPGRCCRCCRAPRLLQAYSWKEEEEEDEGSMESLTSSEGEEPGSEVVIKMPMVDPEAQAPTKQPPRSSPNTVKRPTKKGRDRAGKGQKPRGKEQLAKRKTFSLVKEKKAARTLSAILLAFILTWTPYNIMVLVSTFCKDCVPETLWELGYWLCYVNSTINPMCYALCNKAFRDTFRLLLLCRWDKRRWRKIPKRPGSVHRTPSRQC
B3: L151A: Ala-mutant in the transmembrane region of the M1 mAChR (protein)
chain: MNTSAPPAVSPNITVLAPGKGPWQVAFIGITTGLLSLATVTGNLLVLISFKVNTELKTVNNYFLLSLACADLIIGTFSMNLYTTYLLMGHWALGTLACDLWLALDYVASNASVMNLLLISFDRYFSVTRPLSYRAKRTPRRAALMIGLAWAVSFVLWAPAILFWQYLVGERTVLAGQCYIQFLSQPIITFGTAMAAFYLPVTVMCTLYWRIYRETENRARELAALQGSETPGKGGGSSSSSERSQPGAEGSPETPPGRCCRCCRAPRLLQAYSWKEEEEEDEGSMESLTSSEGEEPGSEVVIKMPMVDPEAQAPTKQPPRSSPNTVKRPTKKGRDRAGKGQKPRGKEQLAKRKTFSLVKEKKAARTLSAILLAFILTWTPYNIMVLVSTFCKDCVPETLWELGYWLCYVNSTINPMCYALCNKAFRDTFRLLLLCRWDKRRWRKIPKRPGSVHRTPSRQC
B4: I119A: Ala-mutant in the transmembrane region of the M1 mAChR (protein)
chain: MNTSAPPAVSPNITVLAPGKGPWQVAFIGITTGLLSLATVTGNLLVLISFKVNTELKTVNNYFLLSLACADLIIGTFSMNLYTTYLLMGHWALGTLACDLWLALDYVASNASVMNLLLASFDRYFSVTRPLSYRAKRTPRRAALMIGLAWLVSFVLWAPAILFWQYLVGERTVLAGQCYIQFLSQPIITFGTAMAAFYLPVTVMCTLYWRIYRETENRARELAALQGSETPGKGGGSSSSSERSQPGAEGSPETPPGRCCRCCRAPRLLQAYSWKEEEEEDEGSMESLTSSEGEEPGSEVVIKMPMVDPEAQAPTKQPPRSSPNTVKRPTKKGRDRAGKGQKPRGKEQLAKRKTFSLVKEKKAARTLSAILLAFILTWTPYNIMVLVSTFCKDCVPETLWELGYWLCYVNSTINPMCYALCNKAFRDTFRLLLLCRWDKRRWRKIPKRPGSVHRTPSRQC

Tested on: M1 mAChR
Format: physicochemical
Conditions: BOG or DDM
Description: This concentration was determined by analysing wild-type M1 mAChRs expressed in the inner cell membranes of intact E. Coli strain BL21 cells. The cells were pre-labelled with the radiolabelled antagonist 3H—N-methyl scopolamine and resuspended to a pre-determined cell density (Absorbance at 600 nm=2.0) in a chosen buffer (in this case 50 mM sodium phosphate, 1 mM EDTA, pH 7.5). […] The wild-type M1 mAChRs were titrated by the addition of increasing concentrations of beta octyl glucoside dissolved in the same buffer for different times (e.g. 1 h, 2 h, 3 h, 5 h, 15 h) and at different temperatures (e.g. 4° C., 15° C.). The loss of specifically-bound radioligand was then measured after recovering the cells by centrifugation (15000×g, 15 min.). In the example, the centrifugation step was performed on duplicate 1 ml aliquots of the cells. The experiment was repeated 3 times. […] It will be appreciated that the cell density, detergent concentration and other parameters of the assay may be varied to adjust the loss of activity as appropriate.
(a) A state of in-situ destabilisation of a particular membrane protein in a particular cell membrane as a result of the addition of a particular concentration of a particular detergent, can be defined by the loss of the characteristic specific ligand binding activity of the membrane protein for a particular ligand of interest in the presence of a defined concentration of a particular detergent molecule or other solubilising agent.
A preferred version of the assay is destabilisation of a membrane protein-ligand complex in a detergent-enriched membrane. The membrane protein, either in a membrane preparation, or in intact cells in-vivo or ex-vivo, is pre-incubated with a labelled version of the ligand, the label, for instance, being a radioactive label, or a fluorescent label, and the binding step preferably being allowed to proceed to equilibrium, defined as the achievement of a time-invariant level of binding. To define membrane protein-independent, or non-specific, binding the binding step is performed with the addition of a second non-labelled ligand, called the competing ligand, having an appropriate membrane protein-specific pharmacology, at a concentration sufficient fully to occupy the binding sites of the membrane protein and thereby exclude the binding of the labelled ligand. The difference between the binding of the labelled ligand in the absence and presence of the competing ligand is defined as the specific binding of the labelled ligand. Measurement of binding requires a suitable method for separating and measuring bound ligand. Characteristically, this involves centrifugation of intact cells or membranes for a time and at a centrifugal force adequate to pellet them (for instance, 15000×g for 15 min in the case of E. coli cells, or 100,000×g for plasma membrane preparations), or filtration of a membrane suspension e.g. through a suitable filter paper such as glass fibre paper e.g. GF-B or GF-C followed by counting of radioactivity. Alternatively, it might involve the measurement of an optical signal such as enhancement of fluorescence emission in the case of fluorescent ligands.
To perform the in-situ destabilisation assay, a pre-determined concentration of the detergent or other destabilising agent of choice is mixed with a membrane or cell suspension containing the pre-labelled membrane protein in an appropriate buffer composition at a particular temperature and for a particular time, determined as described below.

Molecule | stability relative to wild-type (retention of bound 3H-NMS), in words
B1 | smaller enhancements
B2 | reductions
B3 | smaller enhancements
B4 | reductions
